Paper PMC11772769, “Selective cargo and membrane recognition by SNX17 regulates its interaction with Retriever” (EMBO Reports, 2024)

How the values were obtained:
VPS26C = molecular target: T1, VPS26C (Homo sapiens, UniProt O14972); experiment: Isothermal titration calorimetry VPS26C with SNX17FERM-CT; type: binding; details: ITC, 30 μM VPS26C and 300 μM SNX17FERM-CT, 25 mM Hepes pH 7.5, 150 mM NaCl, 25 °C; also pull-down
T1 construct: His-Sumo3 (N, cleaved yes); made in house; host or cells: Escherichia coli BL21(DE3)
Method: Isothermal titration calorimetry (ITC) experiments were carried out on a Nano ITC calorimeter (TA Instruments). VPS26C and SNX17FERM-CT were dialyzed overnight at 4 °C against 25 mM Hepes pH 7.5, 150 mM NaCl, and 0.5 mM TCEP, and degassed for 30 min at 25 °C before titration. The titration experiments were conducted at 25 °C with one initial 1.5 μl injection followed by 19 injections of 2.5 μl with a spacing of 300 s between injections. To determine the heat of dilution similar injections of SNX17FERM-CT in buffer were carried out. The resulting titration data were analyzed using NanoAnalyze software (TA Instruments).

[1] = Liposome co-sedimentation assay; type: binding; details: protein alone (2 μM) with PI3P-containing LUVs (1 mM), 25 mM Hepes pH 7.5, 200 mM NaCl, 1 h room temperature; Coomassie densitometry; mean ± SD
Method: All lipids were purchased from Avanti Polar Lipids, INC. (Alabaster, AL) and dissolved in a final 20:9 molar ratio of chloroform:methanol. The lipid composition of liposomes consisted of DOPC, DOPE, DOPS, 18:1 PI(3)P, and 1,2-dioleoyl-sn-glycero-3-phosphoethanolamine-N-(lissamine rhodamine B sulfonyl) (18:1 Liss Rhod PE) in a final molar ratio of 44.7:29.3:20.0:5.0:1.0, respectively. Vesicles were prepared using the same thin-film hydration method described for GUVs, followed by extrusion to get a more homogeneous vesicle population. A mini extruder (Avanti Polar Lipids) and Whatman Nucleopore track-etched membranes with a pore size of 0.4 μm (Cytiva) were used to obtain Large Unilamellar Vesicles (LUVs). The extrusion buffer (25 mM Hepes pH 7.5, 1 mM TCEP) was supplemented with 250 mM raffinose pentahydrate to produce vesicles filled with raffinose. These vesicles can be separated from the aqueous solution in co-sedimentation assays by centrifugation (Julkowska et al, [2013]). […]
For co-sedimentation experiments, the working buffer (25 mM Hepes pH 7.5, 200 mM NaCl, 1 mM TCEP), proteins (Retriever, HisSumo-SNX17, and His10-L2FBR or His10-LRP1ICD in a 2:2:4 μM ratio), and liposomes (1 mM final concentration) were sequentially mixed into 0.5 ml tubes. […] Quantification of signal intensity was determined using Empiria Studio Software (LI-COR). […]

SNX17: recombinant sorting nexin 17; His-Sumo3-SNX17 in co-sedimentation, SNX17FERM-CT in ITC
interaction with VPS26C (VPS26C): no direct interaction
percentage of total protein bound to the pellet [1]: 64 ± 17%
